Source: patent US20090215666A1 (ONCOTHERAPY SCIENCE, published 2009)

Molecular target: T1, HA-tagged PPP3CA (calcineurin A subunit, PP2B) (UniProt Q08209 1-521, limits assumed)
T1 construct: Exogenously expressed in COS7 cells and immunoprecipitated with anti-HA antibody; not shown: HA tag
Assay: co-immunoprecipitation from co-transfected COS7 cells (anti-HA IP, anti-Flag blot)

binding result: no binding
B1: Flag-tagged ΔPDIIIT-C1958 (other, not shown: small tags and cut ends)
chain: MGLKMSCLKGFQMCVSSSSSSHDEAPVLNDKHLDVPPTPTGMMLPRDLGSTVWLDETGSCPDDGEIDPEA
notes: also called ΔPDIIIT mutant
